In US20150104469A1 (EXTEND BIOSCIENCES, published 2015):

Biological target: GHS-R receptor
Experiment: cell-based or functional assay

Chain of GHS-R receptor (Q92847 whole entry): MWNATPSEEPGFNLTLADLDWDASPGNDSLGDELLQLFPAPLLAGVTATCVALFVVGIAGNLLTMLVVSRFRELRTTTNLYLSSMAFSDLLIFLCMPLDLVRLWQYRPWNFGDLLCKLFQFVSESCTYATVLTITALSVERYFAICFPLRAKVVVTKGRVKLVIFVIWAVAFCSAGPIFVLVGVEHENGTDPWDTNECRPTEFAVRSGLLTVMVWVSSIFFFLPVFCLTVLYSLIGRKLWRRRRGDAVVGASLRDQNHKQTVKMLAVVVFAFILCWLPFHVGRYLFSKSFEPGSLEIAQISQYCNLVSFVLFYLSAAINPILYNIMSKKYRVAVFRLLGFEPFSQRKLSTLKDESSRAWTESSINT

B1: Vitamin D3-PEG-maleimide carrier-conjugated ghrelin from Example 3 (peptide)
peptide: GSSFLSPEHQKAQQRKESKKPPAKLQPRC
modifications: n-octanoyl-Ser at position 3; Vitamin D3-PEG (2 kDa)-maleimide carrier coupled to the free thiol of the added C-terminal cysteine
EC50, calcium flux (FLIPR) % activation in GHS-R-expressing CHO-K1 cells: 85 nM
